According to patent US20250011448A1 (STAIDSON BIOPHARMA, published 2025):

Assays:
[1] = target: T1, human TNFR2 extracellular domain with C-terminal 10×His tag (human, UniProt P20333 23-257); test: ELISA, plate coated with His-tagged TNFR2 ECD, serial dilution of chimeric IgG
T1 construct: also called huTNFR2-His; His-tag-huTNFR2
T1 sequence: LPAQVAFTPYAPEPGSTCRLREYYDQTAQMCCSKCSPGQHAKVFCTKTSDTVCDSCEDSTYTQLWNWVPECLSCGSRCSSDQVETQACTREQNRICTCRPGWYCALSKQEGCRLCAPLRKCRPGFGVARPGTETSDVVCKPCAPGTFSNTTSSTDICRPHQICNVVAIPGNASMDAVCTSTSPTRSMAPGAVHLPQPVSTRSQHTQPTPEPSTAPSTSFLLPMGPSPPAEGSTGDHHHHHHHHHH
Description: (§1) TNFR2 binding of purified recombinant chimeric antibodies: The huTNFR2, cynoTNFR2 antigen binding ELISA was performed on the purified recombinant chimeric antibodies. Briefly, 384-well, clear, flat bottom, high binding plates (VWR, cat #29444-096) were coated overnight at 4° C. with 1 μg/mL of huTNFR2 or cynomolgus monkey TNFR2-His in PBS. After removing the coating solution, the plates were blocked by adding blocking buffer and incubated at room temperature for 1 hour. Plates were then washed 3 times with wash buffer. Serial dilution of purified antibodies in PBS was added to individual well followed by incubation at room temperature for 1 hour. Plates were washed 3 times with wash buffer. Then 50 μL/well of goat anti hu Kappa —AP (Southern Biotech, cat #2061-04) at 1:3000 dilution or goat anti human IgG Fc-AP at 1:3000 dilution in ELISA diluent was added, incubated at room temperature for 1 hour, washed 5 times with wash buffer and developed for 30 minutes with 50 μL/well of pNPP substrate. Plates were analyzed with a Bio-TEK at 405 nm. The chimeric TNFR2 antibodies were tested positive for binding to huTNFR2 and cynoTNFR2. The TNFR2 binding EC50 values are shown in Table 6, FIG. 1A (for huTNFR2) and FIG. 1B (for cynoTNFR2).

[2] = target: T2, cynomolgus monkey TNFR2 extracellular domain with C-terminal 10×His tag (cynomolgus monkey, UniProt P20333 23-257 (human entry)); test: as above
T2 construct: also called cynoTNFR2-His; His-tag-cynoTNFR2
T2 chain: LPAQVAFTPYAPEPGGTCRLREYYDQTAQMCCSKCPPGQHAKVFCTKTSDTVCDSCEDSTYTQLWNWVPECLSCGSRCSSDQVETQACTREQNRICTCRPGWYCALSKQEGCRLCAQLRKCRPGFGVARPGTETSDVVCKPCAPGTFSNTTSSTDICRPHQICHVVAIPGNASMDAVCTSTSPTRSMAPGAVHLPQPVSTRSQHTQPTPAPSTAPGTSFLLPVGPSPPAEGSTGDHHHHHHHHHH
Description: as §1

B1: 85G8.4 chimeric anti-TNFR2 antibody (antibody, V domains shown)
VH: EVQLQQSGPELVKPGASVKISCKTSGYTFTDFNMDWVKQSHGKSLEWIGYINPNNGDAAYNQKFKSKATLTVDKSSNTAYMELHSLTSDDSAVYYCARWGWAFAYWGQGTLVTVSA
VL: DIVMTQSHKIMSTSVGDRVSITCKASQDVKTAVAWYQQKPGQSPKLLIYATSYRYTGVPDRFTGSGSGTDFTFTISTVQAEDLAVYYCQQHYSIPYTFGGGTKLEIK
notes: Chimeric: mouse variable domains with human constant regions, made as recombinant IgG1
- EC50 [1]: 0.039 nM
- EC50 [2]: 0.0488 nM

B2: 15H10 chimeric anti-TNFR2 antibody (antibody, V domains shown)
VH: DVQLQESGPGLVTPSQSLSLTCSVTGYSITSGYYWNWIRQFPGNKLEWMGYITYDGNNNYNPSLKSRFSITRDTSKNQFFLKLNSVTSEDTATYYCARGDYGDSAMDYWGQGTSVTVSS
VL: EIVLTQSPAITAASLGQKVTITCSASSGVNYMHWYQQKSGTSPKPWIYEISKLASGVPARFSGSGSGTSYSLTISSMEAEDAAIYYCQQWNYPLITFGAGTKVELK
notes: as for B1
- EC50 [1]: 0.051 nM
- EC50 [2]: 0.05 nM

B3: 11C1 chimeric anti-TNFR2 antibody (antibody, V domains shown)
VH: DVQLRESGPGLVTPSQSLSLTCSVTGYSITSGYYWNWIRQIPGNKLEWMGYITYDGNNNYDPSLKNRISITRDTSKNQFFLTLNSVTSEDTATYYCARGDYGDSAMDYWGQGTSVTVSS
VL: EIVLTQSPAITAASLGQKVTITCSASSSVSYMHWYQQKSGTSPKPWIYEISKLASGVPARFSGSGSGTSYSLIISSMEAEDAAIYYCQQWNYPLITFGAGTKLELK
notes: as for B1
- EC50 [1]: 0.0508 nM
- EC50 [2]: 0.057 nM

B4: 29G3 chimeric anti-TNFR2 antibody (antibody, V domains shown)
VH: EVMLVESGGASVKPGGSLKLSCAASGFTFSNFAMSWVRQTPEKRLEWVATIRSGDNYSYYSDNVKGRFTISRDNARNTLYLQMSSLRSKDTSIYYCARNWDKVFDYWGQGTTLTVSS
VL: DIVLTQSPASLAVSLGQRATISCRASESVDSYGYSFMHWYQQKPGQPPKLLIYRASNLKSGIPARFSGSGSRTDFTLTINPVEADDVATYYCQQSNEDHTFGGGTKLEIK
notes: as for B1
- EC50 [1]: 0.0293 nM
- EC50 [2]: 0.0414 nM
